First the molecules themselves.
B1: Cohesin subunit SA-2 (Homo sapiens), Q8N3U4 (parent)
chain: MIAAPEIPTDFNLLQESETHFSSDTDFEDIEGKNQKQGKGKTCKKGKKGPAEKGKGGNGGGKPPSGPNRMNGHHQQNGVENMMLFEVVKMGKSAMQSVVDDWIESYKHDRDIALLDLINFFIQCSGCKGVVTAEMFRHMQNSEIIRKMTEEFDEDSGDYPLTMAGPQWKKFKSSFCEFIGVLVRQCQYSIIYDEYMMDTVISLLTGLSDSQVRAFRHTSTLAAMKLMTALVNVALNLSINMDNTQRQYEAERNKMIGKRANERLELLLQKRKELQENQDEIENMMNAIFKGVFVHRYRDAIAEIRAICIEEIGIWMKMYSDAFLNDSYLKYVGWTMHDKQGEVRLKCLTALQGLYYNKELNSKLELFTSRFKDRIVSMTLDKEYDVAVQAIKLLTLVLQSSEEVLTAEDCENVYHLVYSAHRPVAVAAGEFLYKKLFSRRDPEEDGMMKRRGRQGPNANLVKTLVFFFLESELHEHAAYLVDSMWDCATELLKDWECMNSLLLEEPLSGEEALTDRQESALIEIMLCTIRQAAECHPPVGRGTGKRVLTAKEKKTQLDDRTKITELFAVALPQLLAKYSVDAEKVTNLLQLPQYFDLEIYTTGRLEKHLDALLRQIRNIVEKHTDTDVLEACSKTYHALCNEEFTIFNRVDISRSQLIDELADKFNRLLEDFLQEGEEPDEDDAYQVLSTLKRITAFHNAHDLSKWDLFACNYKLLKTGIENGDMPEQIVIHALQCTHYVILWQLAKITESSSTKEDLLRLKKQMRVFCQICQHYLTNVNTTVKEQAFTILCDILMIFSHQIMSGGRDMLEPLVYTPDSSLQSELLSFILDHVFIEQDDDNNSADGQQEDEASKIEALHKRRNLLAAFCKLIVYTVVEMNTAADIFKQYMKYYNDYGDIIKETMSKTRQIDKIQCAKTLILSLQQLFNEMIQENGYNFDRSSSTFSGIKELARRFALTFGLDQLKTREAIAMLHKDGIEFAFKEPNPQGESHPPLNLAFLDILSEFSSKLLRQDKRTVYVYLEKFMTFQMSLRREDVWLPLMSYRNSLLAGGDDDTMSVISGISSRGSTVRSKKSKPSTGKRKVVEGMQLSLTEESSSSDSMWLSREQTLHTPVMMQTPQLTSTIMREPKRLRPEDSFMSVYPMQTEHHQTPLDYNRRGTSLMEDDEEPIVEDVMMSSEGRIEDLNEGMDFDTMDIDLPPSKNRRERTELKPDFFDPASIMDESVLGVSMF
B2: Cohesin subunit SA-2 (Homo sapiens), Q8N3U4 (parent)
chain: B1 chain
partner: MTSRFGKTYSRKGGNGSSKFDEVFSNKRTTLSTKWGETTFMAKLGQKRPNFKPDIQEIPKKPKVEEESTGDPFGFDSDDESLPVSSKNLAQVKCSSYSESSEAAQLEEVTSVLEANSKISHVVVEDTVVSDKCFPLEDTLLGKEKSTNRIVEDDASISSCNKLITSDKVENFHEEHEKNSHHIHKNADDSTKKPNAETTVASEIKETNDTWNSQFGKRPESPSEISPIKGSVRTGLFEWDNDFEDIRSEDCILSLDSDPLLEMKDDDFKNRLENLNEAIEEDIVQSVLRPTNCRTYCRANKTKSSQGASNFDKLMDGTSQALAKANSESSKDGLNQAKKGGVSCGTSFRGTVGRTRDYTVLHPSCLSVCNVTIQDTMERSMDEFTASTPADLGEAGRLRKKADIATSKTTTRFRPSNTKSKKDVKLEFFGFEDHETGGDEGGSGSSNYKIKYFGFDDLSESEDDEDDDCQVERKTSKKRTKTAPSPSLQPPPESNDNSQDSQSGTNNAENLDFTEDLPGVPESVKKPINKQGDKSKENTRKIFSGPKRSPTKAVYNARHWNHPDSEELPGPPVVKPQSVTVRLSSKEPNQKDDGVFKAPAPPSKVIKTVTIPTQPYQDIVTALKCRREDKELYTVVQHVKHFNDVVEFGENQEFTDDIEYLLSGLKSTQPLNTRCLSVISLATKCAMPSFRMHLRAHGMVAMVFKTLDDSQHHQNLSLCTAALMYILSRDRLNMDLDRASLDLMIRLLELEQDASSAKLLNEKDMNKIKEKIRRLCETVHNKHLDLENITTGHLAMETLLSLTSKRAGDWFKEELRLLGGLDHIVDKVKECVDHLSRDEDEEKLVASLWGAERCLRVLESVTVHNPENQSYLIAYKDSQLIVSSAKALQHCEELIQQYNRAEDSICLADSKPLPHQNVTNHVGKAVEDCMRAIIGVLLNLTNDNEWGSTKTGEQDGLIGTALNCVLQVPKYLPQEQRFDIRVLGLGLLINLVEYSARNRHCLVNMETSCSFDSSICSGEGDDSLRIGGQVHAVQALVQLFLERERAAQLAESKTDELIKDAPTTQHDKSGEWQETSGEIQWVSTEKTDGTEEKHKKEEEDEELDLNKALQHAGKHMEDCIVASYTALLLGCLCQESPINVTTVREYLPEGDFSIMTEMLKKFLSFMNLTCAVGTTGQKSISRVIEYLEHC
B3: Cohesin subunit SA-2 (Homo sapiens), Q8N3U4 (parent)
chain: B1 chain
partner: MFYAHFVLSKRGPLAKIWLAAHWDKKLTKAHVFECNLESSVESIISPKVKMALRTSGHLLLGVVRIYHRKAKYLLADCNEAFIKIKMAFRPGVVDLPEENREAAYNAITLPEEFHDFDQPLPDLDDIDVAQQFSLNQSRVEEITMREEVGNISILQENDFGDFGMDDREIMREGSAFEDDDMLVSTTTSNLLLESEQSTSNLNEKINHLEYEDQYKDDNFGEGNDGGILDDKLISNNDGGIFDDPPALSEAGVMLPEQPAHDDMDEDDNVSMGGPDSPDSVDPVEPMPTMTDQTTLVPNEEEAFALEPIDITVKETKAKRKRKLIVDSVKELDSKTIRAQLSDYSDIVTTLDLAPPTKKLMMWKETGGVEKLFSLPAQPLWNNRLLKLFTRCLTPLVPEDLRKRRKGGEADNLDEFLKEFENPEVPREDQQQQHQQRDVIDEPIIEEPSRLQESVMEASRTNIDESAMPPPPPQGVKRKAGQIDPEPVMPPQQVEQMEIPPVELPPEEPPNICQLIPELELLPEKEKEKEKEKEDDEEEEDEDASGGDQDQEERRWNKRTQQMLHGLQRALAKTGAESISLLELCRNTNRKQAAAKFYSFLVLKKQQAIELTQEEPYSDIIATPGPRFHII

Variants of B1 are the subject of the first assay. The settings on record: with sgo1_human SGO1, Q5FBB7.
sgo1_human SGO1, Q5FBB7, sequence (Q5FBB7 whole entry): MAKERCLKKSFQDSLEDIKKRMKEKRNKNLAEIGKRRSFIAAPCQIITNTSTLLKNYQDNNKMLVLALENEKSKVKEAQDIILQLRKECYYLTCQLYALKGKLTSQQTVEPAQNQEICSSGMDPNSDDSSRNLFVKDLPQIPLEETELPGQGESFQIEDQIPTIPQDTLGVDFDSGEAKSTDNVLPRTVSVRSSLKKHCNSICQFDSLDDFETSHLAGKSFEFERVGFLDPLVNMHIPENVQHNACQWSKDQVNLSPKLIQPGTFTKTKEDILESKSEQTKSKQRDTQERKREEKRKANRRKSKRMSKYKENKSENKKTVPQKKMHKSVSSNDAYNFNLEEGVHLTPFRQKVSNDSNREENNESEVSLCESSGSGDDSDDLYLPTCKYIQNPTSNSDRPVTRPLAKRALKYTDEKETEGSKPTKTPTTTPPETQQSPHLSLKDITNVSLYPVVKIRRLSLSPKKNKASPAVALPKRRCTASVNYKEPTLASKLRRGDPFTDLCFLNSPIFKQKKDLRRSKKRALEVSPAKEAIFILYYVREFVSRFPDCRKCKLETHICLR
For K330E, the “effect of a mutation on the interaction” value is on record as “disrupting interaction”.

On to S327N, for which the “effect of a mutation on the interaction” value was “decreasing interaction”.

Variants of B2 are the subject of the next assay. The settings on record: with wapl_human WAPL.
With K330E, the “effect of a mutation on the interaction” value was “decreasing interaction”. As to S327N, the “effect of a mutation on the interaction” value was “with no effect”.

In the next assay the parent is B3. The settings on record: with rad21_human RAD21, O60216.
For the variant S327N, the “effect of a mutation on the interaction” value was “with no effect”.

The values are drawn from IntAct's records for PubMed 29263825.
